Here are results for one protein from patent US20250025552A1 (published 2025).

This series deals with the molecule itself. Briefly: gel filtration (Superdex 200) of His-caspase 11 after incubation with oxPAPC; self-association. Here is the method:
To measure the ability of oxPAPC to oligomerize caspase-11, monomer or oligomer fractions of His-caspase 11 were incubated with oxPAPC for 2 hours on ice, and then analyzed with Superdex 200 (10/300).

B1: His-caspase 11 (full length mouse caspase 11 with a TEV cleavable N-terminal 6xHis tag) (enzyme, UniProt P70343 1-373, looked up)
chain: MAENKHPDKPLKVLEQLGKEVLTEYLEKLVQSNVLKLKEEDKQKFNNAERSDKRWVFVDAMKKKHSKVGEMLLQTFFSVDPGSHHGEANLEMEEPEESLNTLKLCSPEEFTRLCREKTQEIYPIKEANGRTRKALIICNTEFKHLSLRYGANFDIIGMKGLLEDLGYDVVVKEELTAEGMESEMKDFAALSEHQTSDSTFLVLMSHGTLHGICGTMHSEKTPDVLQYDTIYQIFNNCHCPGLRDKPKVIIVQACRGGNSGEMWIRESSKPQLCRGVDLPRNMEADAVKLSHVEKDFIAFYSTTPHHLSYRDKTGGSYFITRLISCFRKHACSCHLFDIFLKVQQSFEKASIHSQMPTIDRATLTRYFYLFPGN
notes: Monomer or oligomer fractions from size exclusion chromatography were incubated with oxPAPC and run on Superdex 200; not shown: TEV cleavable N-terminal 6xHis tag from the pFastBac HT A vector
Turning to B1, the binding result was “binds”.
